Reference: US20040259779A1

Key:
[1] = target: combination of receptor ALK4 and receptor ActRIIB; assay: cell-based or functional assay
[2] = target: combination of receptor ALK7 and receptor ActRIIB; assay: cell-based or functional assay

## Neuronal Survival and Growth Factor 3 (NSG3) (ligand)
[1]
  luciferase activity of the Smad3-specific pCAGA-luc reporter in HepG2 cells co-expressing ALK4, ActRIIB and NsG-3 (basal without NsG-3 approx. 2) (arbitrary units): 7
[2]
  luciferase activity of the Smad3-specific pCAGA-luc reporter in HepG2 cells co-expressing ALK7, ActRIIB and NsG-3 (basal without NsG-3 approx. 9) (arbitrary units): 33
